From patent US20230250154A1 (CYTONICS, published 2023)
One block for each binder: values may come before it.

Assays:
Test in all cases: cell-based or functional assay
ADAMTS4 = target: T1, ADAMTS4 (human, UniProt O75173 213-685, limits assumed)
T1 sequence (looked up): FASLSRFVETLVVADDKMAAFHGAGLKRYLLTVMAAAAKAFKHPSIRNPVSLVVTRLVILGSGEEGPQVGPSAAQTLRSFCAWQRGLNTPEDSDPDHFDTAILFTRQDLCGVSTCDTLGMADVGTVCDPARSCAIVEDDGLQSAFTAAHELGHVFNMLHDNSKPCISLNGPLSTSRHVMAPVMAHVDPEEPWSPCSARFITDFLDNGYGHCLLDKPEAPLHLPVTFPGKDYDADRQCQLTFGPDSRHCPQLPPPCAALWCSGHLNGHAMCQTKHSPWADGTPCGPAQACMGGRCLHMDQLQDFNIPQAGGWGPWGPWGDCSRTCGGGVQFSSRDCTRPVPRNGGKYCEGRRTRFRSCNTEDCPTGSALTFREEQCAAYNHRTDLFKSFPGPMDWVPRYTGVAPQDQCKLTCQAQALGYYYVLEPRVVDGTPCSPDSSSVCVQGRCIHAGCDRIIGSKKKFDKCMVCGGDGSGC

ADAMTS5 = target: T2, ADAMTS5 (human, UniProt Q9UNA0 262-622, limits assumed)
T2 sequence (looked up): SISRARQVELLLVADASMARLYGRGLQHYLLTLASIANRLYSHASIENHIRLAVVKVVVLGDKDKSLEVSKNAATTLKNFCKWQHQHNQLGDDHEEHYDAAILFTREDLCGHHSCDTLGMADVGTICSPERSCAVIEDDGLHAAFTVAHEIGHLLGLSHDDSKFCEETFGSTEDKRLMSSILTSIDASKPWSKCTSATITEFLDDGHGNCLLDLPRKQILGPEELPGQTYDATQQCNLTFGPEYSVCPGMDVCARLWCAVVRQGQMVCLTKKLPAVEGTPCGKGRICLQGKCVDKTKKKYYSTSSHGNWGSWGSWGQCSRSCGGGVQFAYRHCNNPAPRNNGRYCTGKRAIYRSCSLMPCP

MMP1 = target: T3, MMP1 (human, UniProt P03956 100-469, limits assumed)
T3 sequence (looked up): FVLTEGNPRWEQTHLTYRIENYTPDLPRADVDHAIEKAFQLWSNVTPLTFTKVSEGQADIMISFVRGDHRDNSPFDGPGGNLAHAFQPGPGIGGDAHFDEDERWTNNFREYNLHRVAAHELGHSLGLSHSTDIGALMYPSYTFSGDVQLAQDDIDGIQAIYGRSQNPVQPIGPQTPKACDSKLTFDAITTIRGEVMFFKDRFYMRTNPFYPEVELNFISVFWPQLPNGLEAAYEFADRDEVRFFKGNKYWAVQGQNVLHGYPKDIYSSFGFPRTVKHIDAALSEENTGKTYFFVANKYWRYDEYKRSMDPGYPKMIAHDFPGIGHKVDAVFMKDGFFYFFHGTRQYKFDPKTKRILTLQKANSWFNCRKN

MMP8 = MMP8 (human, UniProt P22894 101-467, limits assumed)
Sequence of MMP8 (P22894 101-467 limits assumed): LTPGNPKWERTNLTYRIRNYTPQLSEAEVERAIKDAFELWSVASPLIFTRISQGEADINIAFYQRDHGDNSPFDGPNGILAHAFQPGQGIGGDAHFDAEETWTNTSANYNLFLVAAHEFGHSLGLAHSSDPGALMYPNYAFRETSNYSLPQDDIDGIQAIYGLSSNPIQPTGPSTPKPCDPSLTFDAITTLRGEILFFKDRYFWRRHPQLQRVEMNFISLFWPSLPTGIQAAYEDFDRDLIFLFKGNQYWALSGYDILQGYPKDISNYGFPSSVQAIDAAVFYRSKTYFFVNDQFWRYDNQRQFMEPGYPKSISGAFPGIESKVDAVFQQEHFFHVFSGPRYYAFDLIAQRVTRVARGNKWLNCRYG

MMP13 = MMP13 (human, UniProt P45452 104-471, limits assumed)
MMP2 = target: T4, MMP2 (human, UniProt P08253 110-660, limits assumed)
T4 sequence (looked up): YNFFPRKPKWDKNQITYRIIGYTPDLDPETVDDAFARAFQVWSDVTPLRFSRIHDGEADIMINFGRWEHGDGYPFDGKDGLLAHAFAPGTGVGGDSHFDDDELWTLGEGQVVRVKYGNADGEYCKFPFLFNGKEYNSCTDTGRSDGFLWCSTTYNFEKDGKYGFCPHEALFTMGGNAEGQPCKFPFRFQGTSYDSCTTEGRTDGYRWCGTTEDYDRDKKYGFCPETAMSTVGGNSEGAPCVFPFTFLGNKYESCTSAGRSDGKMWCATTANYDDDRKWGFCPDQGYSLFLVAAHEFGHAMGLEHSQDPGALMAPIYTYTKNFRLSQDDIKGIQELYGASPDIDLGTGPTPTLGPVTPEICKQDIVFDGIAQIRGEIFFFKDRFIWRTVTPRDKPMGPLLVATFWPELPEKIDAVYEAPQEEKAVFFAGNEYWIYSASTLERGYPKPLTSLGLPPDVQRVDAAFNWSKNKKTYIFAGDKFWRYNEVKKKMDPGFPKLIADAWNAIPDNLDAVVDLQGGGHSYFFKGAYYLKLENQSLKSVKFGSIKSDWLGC

MMP9 = MMP9 (human, UniProt P14780 107-707, limits assumed)
Sequence of MMP9 (P14780 107-707 limits assumed): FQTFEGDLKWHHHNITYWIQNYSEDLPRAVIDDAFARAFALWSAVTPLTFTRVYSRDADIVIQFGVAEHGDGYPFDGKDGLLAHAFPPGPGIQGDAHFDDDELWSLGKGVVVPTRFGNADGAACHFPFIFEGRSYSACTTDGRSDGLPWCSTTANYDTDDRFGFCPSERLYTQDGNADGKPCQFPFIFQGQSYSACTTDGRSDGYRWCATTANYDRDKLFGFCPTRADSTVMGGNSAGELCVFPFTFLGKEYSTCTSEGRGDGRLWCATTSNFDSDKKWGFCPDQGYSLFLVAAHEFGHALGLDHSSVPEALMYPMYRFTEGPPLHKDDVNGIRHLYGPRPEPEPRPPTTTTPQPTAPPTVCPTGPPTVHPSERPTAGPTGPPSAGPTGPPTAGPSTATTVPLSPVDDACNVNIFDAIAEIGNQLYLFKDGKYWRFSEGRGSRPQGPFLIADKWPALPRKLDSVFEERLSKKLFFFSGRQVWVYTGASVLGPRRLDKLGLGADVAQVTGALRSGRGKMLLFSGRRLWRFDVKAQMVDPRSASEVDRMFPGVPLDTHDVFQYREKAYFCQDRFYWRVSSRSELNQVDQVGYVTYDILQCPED

MMP3 = MMP3 (human, UniProt P08254 100-477, limits assumed)
Sequence of MMP3 (P08254 100-477 limits assumed): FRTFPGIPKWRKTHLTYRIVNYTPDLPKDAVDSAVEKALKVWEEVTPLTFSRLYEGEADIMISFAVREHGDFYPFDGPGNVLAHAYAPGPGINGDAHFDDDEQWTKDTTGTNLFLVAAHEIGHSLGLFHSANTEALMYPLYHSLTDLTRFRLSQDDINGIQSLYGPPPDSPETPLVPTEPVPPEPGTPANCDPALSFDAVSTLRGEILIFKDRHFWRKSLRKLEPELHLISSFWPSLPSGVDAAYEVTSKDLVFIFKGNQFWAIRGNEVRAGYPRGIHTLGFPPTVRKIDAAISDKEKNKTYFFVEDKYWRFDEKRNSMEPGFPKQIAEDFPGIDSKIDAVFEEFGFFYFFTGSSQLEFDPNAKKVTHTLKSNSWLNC

Elastase = target: Elastase
Cathepsin G = target: T5, Cathepsin G (UniProt P08311 21-244)
T5 sequence (looked up): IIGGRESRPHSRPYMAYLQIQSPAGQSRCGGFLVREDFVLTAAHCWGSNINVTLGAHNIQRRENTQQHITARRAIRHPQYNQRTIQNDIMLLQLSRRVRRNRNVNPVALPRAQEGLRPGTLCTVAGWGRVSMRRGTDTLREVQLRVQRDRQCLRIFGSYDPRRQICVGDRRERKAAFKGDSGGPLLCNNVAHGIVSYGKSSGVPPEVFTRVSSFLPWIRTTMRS

MMP7 = target: T6, MMP7 (UniProt P09237 95-267, limits assumed)
T6 sequence (looked up): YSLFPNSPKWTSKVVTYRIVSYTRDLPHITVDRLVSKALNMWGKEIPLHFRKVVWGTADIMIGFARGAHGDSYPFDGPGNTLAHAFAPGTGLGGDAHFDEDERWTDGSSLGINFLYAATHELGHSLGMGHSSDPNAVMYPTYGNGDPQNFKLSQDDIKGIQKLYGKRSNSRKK

Protease Inhibition (% of WT) (ADAMTS4): 68 % of WT
Protease Inhibition (% of WT) (ADAMTS5): 217 % of WT
Protease Inhibition (% of WT) (MMP1): 84 % of WT
Protease Inhibition (% of WT) (MMP8): 39 % of WT
Protease Inhibition (% of WT) (MMP13): 46 % of WT
Protease Inhibition (% of WT) (MMP2): 66 % of WT
Protease Inhibition (% of WT) (MMP9): 45 % of WT
Protease Inhibition (% of WT) (MMP3): 26 % of WT
Protease Inhibition (% of WT) (Elastase): 59 % of WT
Protease Inhibition (% of WT) (Cathepsin G): 58 % of WT
Protease Inhibition (% of WT) (MMP7): 94 % of WT
B1: Variant A2M, bait region SEQ ID NO 21 (other)
chain: SVSGKPQYMVLVPSLLHTETTEKGCVLLSYLNETVTVSASLESVRGNRSLFTDLEAENDVLHCVAFAVPKSSSNEEVMFLTVQVKGPTQEFKKRTTVMVKNEDSLVFVQTDKSIYKPGQTVKFRVVSMDENFHPLNELIPLVYIQDPKGNRIAQWQSFQLEGGLKQFSFPLSSEPFQGSYKVVVQKKSGGRTEHPFTVEEFVLPKFEVQVTVPKIITILEEEMNVSVCGLYTYGKPVPGHVTVSICRKYSDASDCHGEDSQAFCEKFSGQLNSHGCFYQQVKTKVFQLKRKEYEMKLHTEAQIQEEGTVVELTGRQSSEITRTITKLSFVKVDSHFRQGIPFFGQVRLVDGKGVPIPNKVIFIRGNEANYYSNATTDEHGLVQFSINTTNVMGTSLTVRVNYKDRSPCYGYQWVSEEHEEAHHTAYLVFSPSKSFVHLEPMSHELPCGHTQTVQAHYILNGGTLLGLKKLSFYYLIMAKGGIVRTGTHGLLVKQEDMKGHFSISIPVKSDIAPVARLLIYAVLPTGDVIGDSAKYDVENCLANKVDLSFSPSQSLPASHAHLRVTAAPQSVCALRAVDQSVLLMKPDAELSASSVYNLLPEKDLTGFPGPLNDQDDEDCINRHNVYINGITYTPVSSTNEKDMYSFLEDMGLKAFTNSKIRKPKMCPQLEHGPTEGEARGSPRYLTAIPENFYGVSEDLVVQISELEGRGSPHTKLRKYFPETWIWDLVVVNSAGVAEVGVTVPDTITEWKAGAFCLSEDAGLGISSTASLRAFQPFFVELTMPYSVIRGEAFTLKATVLNYLPKCIRVSVQLEASPAFLAVPVEKEQAPHCICANGRQTVSWAVTPKSLGNVNFTVSAEALESQELCGTEVPSVPEHGRKDTVIKPLLVEPEGLEKETTFNSLLCPSGGEVSEELSLKLPPNVVEESARASVSVLGDILGSAMQNTQNLLQMPYGCGEQNMVLFAPNIYVLDYLNETQQLTPEIKSKAIGYLNTGYQRQLNYKHYDGSYSTFGERYGRNQGNTWLTAFVLKTFAQARAYIFIDEAHITQALIWLSQRQKDNGCFRSSGSLLNNAIKGGVEDEVTLSAYITIALLEIPLTVTHPVVRNALFCLESAWKTAQEGDHGSHVYTKALLAYAFALAGNQDKRKEVLKSLNEEAVKKDNSVHWERPQKPKAPVGHFYEPQAPSAEVEMTSYVLLAYLTAQPAPTSEDLTSATNIVKWITKQQNAQGGFSSTQDTVVALHALSKYGAATFTRTGKAAQVTIQSSGTFSSKFQVDNNNRLLLQQVSLPELPGEYSMKVTGEGCVYLQTSLKYNILPEKEEFPFALGVQTLPQTCDEPKAHTSFQISLSVSYTGSRSASNMAIVDVKMVSGFIPLKPTVKMLERSNHVSRTEVSSNHVLIYLDKVSNQTLSLFFTVLQDVPVRDLKPAIVKVYDYYETDEFAIAEYNAPCSKDLGNADYKDDDDKGASHHHHHH

Protease Inhibition (% of WT) (ADAMTS4): 201 % of WT
Protease Inhibition (% of WT) (ADAMTS5): 246 % of WT
Protease Inhibition (% of WT) (MMP1): 119 % of WT
Protease Inhibition (% of WT) (MMP8): 64 % of WT
Protease Inhibition (% of WT) (MMP13): 100 % of WT
Protease Inhibition (% of WT) (MMP2): 37 % of WT
Protease Inhibition (% of WT) (MMP9): 41 % of WT
Protease Inhibition (% of WT) (MMP3): 122 % of WT
Protease Inhibition (% of WT) (Elastase): 124 % of WT
Protease Inhibition (% of WT) (Cathepsin G): 117 % of WT
Protease Inhibition (% of WT) (MMP7): 170 % of WT
B2: Variant A2M, bait region SEQ ID NO 20 (other)
chain: SVSGKPQYMVLVPSLLHTETTEKGCVLLSYLNETVTVSASLESVRGNRSLFTDLEAENDVLHCVAFAVPKSSSNEEVMFLTVQVKGPTQEFKKRTTVMVKNEDSLVFVQTDKSIYKPGQTVKFRVVSMDENFHPLNELIPLVYIQDPKGNRIAQWQSFQLEGGLKQFSFPLSSEPFQGSYKVVVQKKSGGRTEHPFTVEEFVLPKFEVQVTVPKIITILEEEMNVSVCGLYTYGKPVPGHVTVSICRKYSDASDCHGEDSQAFCEKFSGQLNSHGCFYQQVKTKVFQLKRKEYEMKLHTEAQIQEEGTVVELTGRQSSEITRTITKLSFVKVDSHFRQGIPFFGQVRLVDGKGVPIPNKVIFIRGNEANYYSNATTDEHGLVQFSINTTNVMGTSLTVRVNYKDRSPCYGYQWVSEEHEEAHHTAYLVFSPSKSFVHLEPMSHELPCGHTQTVQAHYILNGGTLLGLKKLSFYYLIMAKGGIVRTGTHGLLVKQEDMKGHFSISIPVKSDIAPVARLLIYAVLPTGDVIGDSAKYDVENCLANKVDLSFSPSQSLPASHAHLRVTAAPQSVCALRAVDQSVLLMKPDAELSASSVYNLLPEKDLTGFPGPLNDQDDEDCINRHNVYINGITYTPVSSTNEKDMYSFLEDMGLKAFTNSKIRKPKMCPQLEHGPEFRGVTEGEGEGIPENFYGVSEDLVVQISELEGRGSVEEPHTKLRKYFPETWIWDLVVVNSAGVAEVGVTVPDTITEWKAGAFCLSEDAGLGISSTASLRAFQPFFVELTMPYSVIRGEAFTLKATVLNYLPKCIRVSVQLEASPAFLAVPVEKEQAPHCICANGRQTVSWAVTPKSLGNVNFTVSAEALESQELCGTEVPSVPEHGRKDTVIKPLLVEPEGLEKETTFNSLLCPSGGEVSEELSLKLPPNVVEESARASVSVLGDILGSAMQNTQNLLQMPYGCGEQNMVLFAPNIYVLDYLNETQQLTPEIKSKAIGYLNTGYQRQLNYKHYDGSYSTFGERYGRNQGNTWLTAFVLKTFAQARAYIFIDEAHITQALIWLSQRQKDNGCFRSSGSLLNNAIKGGVEDEVTLSAYITIALLEIPLTVTHPVVRNALFCLESAWKTAQEGDHGSHVYTKALLAYAFALAGNQDKRKEVLKSLNEEAVKKDNSVHWERPQKPKAPVGHFYEPQAPSAEVEMTSYVLLAYLTAQPAPTSEDLTSATNIVKWITKQQNAQGGFSSTQDTVVALHALSKYGAATFTRTGKAAQVTIQSSGTFSSKFQVDNNNRLLLQQVSLPELPGEYSMKVTGEGCVYLQTSLKYNILPEKEEFPFALGVQTLPQTCDEPKAHTSFQISLSVSYTGSRSASNMAIVDVKMVSGFIPLKPTVKMLERSNHVSRTEVSSNHVLIYLDKVSNQTLSLFFTVLQDVPVRDLKPAIVKVYDYYETDEFAIAEYNAPCSKDLGNADYKDDDDKGASHHHHHH
